Target: the molecule itself
Test: cryo-EM structure

B1: Thermochromatium tepidum form-IAq RuBisCO large subunit (RbcL) (natural protein, UniProt A0A6I6DX30 1-472, looked up)
chain: MAKTYSAGVKEYRETYWMPNYTPKDTDILACFKITPQPGVPREEAAAAVAAESSTGTWTTVWTDLLTDLDYYKGRAYAIEDVPGDDTCFYAFIAYPIDLFEEGSVVNVFTSLVGNVFGFKAVRALRLEDVRFPIAYVMTCNGPPHGIQVERDILNKYGRPLLGCTIKPKLGLSAKNYGRAVYECLRGGLDFTKDDENVNSQPFMRWRQRFDFVMEAIDKAERETGERKGHYLNVTAPTPEEMYKRAEYAKEIGAPIIMHDYITGGFCANTGLAQWCRNNGVLLHIHRAMHAVLDRNPHHGIHFRVLTKILRLSGGDHLHTGTVVGKLEGDRQATLGWIDLLRESYVKEDRSRGIFFDQDWGAMPGAFAVASGGIHVWHMPALVTIFGDDSVLQFGGGTLGHPWGNAAGACANRVALEACIEARNQGIPIEKEGKEVLTKAAAHSPELKIAMETWKEIKFEFDSVDKLDVAHK
stoichiometry N: 8

— PMC12216891 (Scientific Reports, 2025)
